In publication PMC5946489, “Inactivation of the tight junction gene CLDN11 by aberrant hypermethylation modulates tubulins polymerization and promotes cell migration in nasopharyngeal carcinoma”:

Molecular target: GST-GATA1 (UniProt P15976 1-413)
Experiment: EMSA; GATA1 antibody used for supershift; Pull-down: probes immobilised on M-280 beads in 5 mM Tris-HCl pH 7.5, 0.5 mM EDTA, 1 M NaCl; 100 ug nuclear extract; washes in binding buffer (composition not given) with 0.5% NP40. EMSA as described previously (ref. 9); temperature not stated
Settings: protein: commercial; tags: GST; label: 5'-biotin; blunt

Chain of GST-GATA1 (P15976 whole entry): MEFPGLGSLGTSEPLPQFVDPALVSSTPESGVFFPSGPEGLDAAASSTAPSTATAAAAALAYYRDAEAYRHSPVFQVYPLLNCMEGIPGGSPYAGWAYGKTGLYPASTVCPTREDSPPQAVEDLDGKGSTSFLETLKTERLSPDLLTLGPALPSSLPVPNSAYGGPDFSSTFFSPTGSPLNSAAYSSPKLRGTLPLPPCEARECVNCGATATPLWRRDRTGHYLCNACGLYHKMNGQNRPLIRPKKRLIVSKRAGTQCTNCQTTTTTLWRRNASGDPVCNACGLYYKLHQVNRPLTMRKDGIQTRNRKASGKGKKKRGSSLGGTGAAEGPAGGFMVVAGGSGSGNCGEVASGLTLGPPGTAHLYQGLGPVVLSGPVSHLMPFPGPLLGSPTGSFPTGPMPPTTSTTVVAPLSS

B1: GATA1/2 WT probe (dsDNA)
DNA 1: CTGCCGCCGATTGGTGCTCGC
DNA 2: GCGAGCACCAATCGGCGGCAG
Does B1 bind?
Result: binds
